The source of these data is the supplement of paper PMC10567573.

B1: ALDH8A1 (parent)
chain: WSSRSPQERSRVLNQVADLLEQSL
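Note: lentivirally expressed fusions sorted by FACS into six bins by GFP to DsRed ratio, PSI derived from sequencing read proportions per bin multiplied by bin number.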

Variants of B1 are the subject of the data set. The experiment in a line: protein stability index of a GFP-peptide fusion (GPS, HEK-293T) (PSI 1-6); higher = more stable. Conditions: c terminus: a fixed tail appended.
For the variant WSSWSPQERSRVLNQVADLLEQSL [R4W], the protein stability index amounted to 2.68. On to WSSHSPQERSRVLNQVADLLEQSL [R4H], for which the protein stability index amounted to 2.71. For the variant WSSVSPQERSRVLNQVADLLEQSL [R4V], the protein stability index stood at 2.02. As for WSSRSPQHRSRVLNQVADLLEQSL [E8H], the protein stability index was 2.71. Turning to WSSRSPQARSRVLNQVADLLEQSL [E8A], the protein stability index was determined as 2.31. For the variant WSSRSPQSRSRVLNQVADLLEQSL [E8S], the protein stability index is 2.16.

Take WSSRSPQVRSRVLNQVADLLEQSL [E8V]: the protein stability index worked out at 2.23. Turning to WSSRSPQWRSRVLNQVADLLEQSL [E8W], the protein stability index amounted to 2.36. As for WSSRSPQIRSRVLNQVADLLEQSL [E8I], the protein stability index was 2.68. Turning to WSSRSPQGRSRVLNQVADLLEQSL [E8G], the protein stability index was found to be 2.17. Turning to WSSRSPQLRSRVLNQVADLLEQSL [E8L], the protein stability index was determined as 2.1. Consider WSSRSPQMRSRVLNQVADLLEQSL [E8M], for which the protein stability index came to 2.19.

With WSSRSPQDRSRVLNQVADLLEQSL [E8D], the protein stability index turned out to be 2.87.

As for WSSRSPQERSRVLNQIADLLEQSL [V16I], the protein stability index is 2.

Take WSSRSPQERSRVLNQHADLLEQSL [V16H]: the protein stability index was determined as 3.55. Then WSSRSPQERSRVLNQMADLLEQSL [V16M], with 2.7; and WSSRSPQERSRVLNQVADLLEQLL [S23L], with 2.11. Take WSSRSPQERSRVLNQVADLLEQML [S23M]: the protein stability index worked out at 2.3.

For WSSRSPQERSRVLNQVADLLEQFL [S23F], the protein stability index stood at 2.24. Under WSSRSPQERSRVLNQVADLLEQRL [S23R] stands 3.64; under WSSRSPQERSRVLNQVADLLEQKL [S23K], 3.53; under WSSRSPQERSRVLNQVADLLEQCL [S23C], 1.96. For the variant WSSRSPQERSRVLNQVADLLEQWL [S23W], the protein stability index worked out at 1.94. On to WSSRSPQERSRVLNQVADLLEQSI [L24I], for which the protein stability index turned out to be 1.76.

Consider WSSRSPQERSRVLNQVADLLEQSE [L24E], for which the protein stability index is 3.59. Regarding WSSRSPQERSRVLNQVADLLEQSK [L24K], the protein stability index amounted to 3.94.

Consider WSSRSPQERSRVLNQVADLLEQSS [L24S], for which the protein stability index turned out to be 3.61.

For WSSRSPQERSRVLNQVADLLEQSH [L24H], the protein stability index amounted to 3.96.

Regarding WSSRSPQERSRVLNQVADLLEQSM [L24M], the protein stability index came to 2.86. Take WSSRSPQERSRVLNQVADLLEQST [L24T]: the protein stability index is 3.34.

In the case of WSSRSPQERSRVLNQVHDLLEQSL [A17H], the protein stability index stood at 2.54. For WSSRSPQERSRVLNQVEDLLEQSL [A17E], the protein stability index worked out at 3.88. For WSSRSPQERSRVLNQVDDLLEQSL [A17D], the protein stability index came out at 3.87.

Take WSSRSPQERSRVLNQVLDLLEQSL [A17L]: the protein stability index stood at 1.48. WSSRSPQERSRVLNQVCDLLEQSL [A17C]: the protein stability index amounted to 2.34. For WSLRSPQERSRVLNQVADLLEQSL [S3L], the protein stability index came to 1.98.

With WSDRSPQERSRVLNQVADLLEQSL [S3D], the protein stability index came out at 2.77. Then WSQRSPQERSRVLNQVADLLEQSL [S3Q], with 2.52.

Consider WSWRSPQERSRVLNQVADLLEQSL [S3W], for which the protein stability index was found to be 1.8. Take WSSRSPQEASRVLNQVADLLEQSL [R9A]: the protein stability index was found to be 2.59. In the case of WSSRSPQESSRVLNQVADLLEQSL [R9S], the protein stability index turned out to be 2.87. As for WSSRSPQETSRVLNQVADLLEQSL [R9T], the protein stability index stood at 2.23. In the case of WSSRSPQEYSRVLNQVADLLEQSL [R9Y], the protein stability index was 2.21. For WSSRSPQECSRVLNQVADLLEQSL [R9C], the protein stability index was 1.39. In the case of WSSRSPQEQSRVLNQVADLLEQSL [R9Q], the protein stability index worked out at 2.24. For the variant WSSRSPQEHSRVLNQVADLLEQSL [R9H], the protein stability index came out at 2.77. Then WSSRSPQELSRVLNQVADLLEQSL [R9L], with 2.48; and WSSRSPQERSRVLAQVADLLEQSL [N14A], with 2.56; and WSSRSPQERSRVLFQVADLLEQSL [N14F], with 1.26. As for WSSRSPQERSRVLTQVADLLEQSL [N14T], the protein stability index turned out to be 2.82. As to WSSRSPQERSRVLSQVADLLEQSL [N14S], the protein stability index stood at 2.58.

As to WSSRSPQERSRVLWQVADLLEQSL [N14W], the protein stability index turned out to be 1.95. Under WSSRSPQERSRVLPQVADLLEQSL [N14P] stands 3.21.

In the case of WSSRSPQERSRVLNDVADLLEQSL [Q15D], the protein stability index is 3.31. For the variant WSSRSPQERSRVLNRVADLLEQSL [Q15R], the protein stability index was 2.85. Then WSSRSPQERSRVLNWVADLLEQSL [Q15W], with 1.79; and WSSRSPQERSRVLNVVADLLEQSL [Q15V], with 1.75. WSSRSPQERSRVLNSVADLLEQSL [Q15S]: the protein stability index came out at 2.74. On to WSSRSPQERSRVLNHVADLLEQSL [Q15H], for which the protein stability index was determined as 2.13. For the variant WSSRSPQERSRVKNQVADLLEQSL [L13K], the protein stability index was found to be 3.53. With WSSRSPQERSRVVNQVADLLEQSL [L13V], the protein stability index was determined as 3.13. Regarding WSSRSPQERSRVSNQVADLLEQSL [L13S], the protein stability index came to 3.49. As to WSSRSPQERSRVDNQVADLLEQSL [L13D], the protein stability index was 3.81.

For the variant WSSRSPQERSRVTNQVADLLEQSL [L13T], the protein stability index is 3.5. In the case of WSSRSPQERSRVNNQVADLLEQSL [L13N], the protein stability index stood at 3.54. WSSRSPQERSRVMNQVADLLEQSL [L13M]: the protein stability index amounted to 2.63. Then WSSRSPQERSRVINQVADLLEQSL [L13I], with 3.06; and WSSRSPQERSRVWNQVADLLEQSL [L13W], with 2.55. Then WSSRSPQERSRVLNQVADQLEQSL [L19Q], with 4.19; and WSSRSPQERSRVLNQVADSLEQSL [L19S], with 4.14; and WSSRSPQERSRVLNQVADELEQSL [L19E], with 4.4. Turning to WSSRSPQERSRVLNQVADTLEQSL [L19T], the protein stability index was 3.74. WSSRSPQERSRVLNQVADNLEQSL [L19N]: the protein stability index amounted to 4.23. Consider WSSRSPQERSRVLNQVADILEQSL [L19I], for which the protein stability index stood at 2.31. Take WSSRSPQERSRVLNQVADALEQSL [L19A]: the protein stability index was found to be 3.18. Consider WSSRSPQERSRVLNQVADVLEQSL [L19V], for which the protein stability index stood at 3.07. Consider WSSRSPQERSRVLNQVADKLEQSL [L19K], for which the protein stability index worked out at 3.79. Regarding WKSRSPQERSRVLNQVADLLEQSL [S2K], the protein stability index stood at 2.48.

As for WQSRSPQERSRVLNQVADLLEQSL [S2Q], the protein stability index is 2.17. Turning to WPSRSPQERSRVLNQVADLLEQSL [S2P], the protein stability index came out at 2.92. As for WLSRSPQERSRVLNQVADLLEQSL [S2L], the protein stability index turned out to be 1.8. Consider WSSRSPQERSCVLNQVADLLEQSL [R11C], for which the protein stability index turned out to be 2.18. Under WSSRSPQERSWVLNQVADLLEQSL [R11W] stands 1.86. For the variant WSSRSPQERSLVLNQVADLLEQSL [R11L], the protein stability index amounted to 2.15. Consider WSSRSHQERSRVLNQVADLLEQSL [P6H], for which the protein stability index came out at 2.73. As for WSSRSDQERSRVLNQVADLLEQSL [P6D], the protein stability index is 3.19. Then WSSRSWQERSRVLNQVADLLEQSL [P6W], with 2.9; and WSSRSQQERSRVLNQVADLLEQSL [P6Q], with 2.85. Consider WSSRSPQERSRFLNQVADLLEQSL [V12F], for which the protein stability index stood at 2.12. As to WSSRSPQERSRSLNQVADLLEQSL [V12S], the protein stability index was found to be 3.78. With WSSRSPQERSRALNQVADLLEQSL [V12A], the protein stability index came out at 3.11. In the case of WSSRSPQERSRPLNQVADLLEQSL [V12P], the protein stability index is 4.23.

Regarding WSSRSPQERSRHLNQVADLLEQSL [V12H], the protein stability index worked out at 3.05. For the variant WSSRSPQERSRWLNQVADLLEQSL [V12W], the protein stability index amounted to 1.73.
